Measurements: patent US8748407B2 (The Research Foundation for the State University of New York, priority 2010, dated 2014)

Target: T1, GluA2Qflip (Rattus norvegicus, UniProt P19491)
T1 construct: expressed in transfected cells; host or cells: HEK-293S
Test: Whole-cell current recording, GluA2Qflip in HEK-293 cells
Assay type: cell-based
Excerpt: The original cDNAs in pBlueScript encoding rat GluA1, 2 and 3 AMPA receptors and GluK2 kainate receptor were kindly provided by Steve Heinemann. The GluA4 DNA plasmid was kindly provided by Peter Seeburg. The GluK1 plasmid was kindly provided by Geoffrey Swanson. The cDNAs of all three NMDA receptor subunits were gifts from John Woodward. All DNA plasmids were propagated using Escherichia coli host (DH5α) and purified using QIAGEN DNA purification kits.
All of the receptors were transiently expressed in HEK-293S cell. HEK-293S cells were maintained in Dulbecco's modified Eagle's medium (DMEM) supplemented with 10% fetal bovine serum and 1% penicillin in a 37° C., 5% CO2, humidified incubator. Receptors were transiently transfected by using calcium phosphate or lipofectamine 2000 (Invitrogen). The DNA plasmids encoding green fluorescent protein (GFP) and T-antigen (TAg) were cotransfected in HEK-293 S cells. GFP was used as a transfection marker for cell recording, and TAg was cotransfected to potentiate the receptor expression at the single-cell level^6. Transfected cells were allowed to grow for 48 hour before they were used for recording.
The procedure for whole-cell current recording to assay the inhibitory property of an RNA aptamer is known to those of skill in the art and has been previously described^7. […] The extracellular buffer composition is described above (see “Receptor Preparation”). For recording of the NMDA channels, the intracellualr solution contained (in mM) 140 CsCl, 1 MgCl2, 0.1 EGTA, and 10 HEPES (pH 7.2 adjusted by […]), while the extracellular solution contained (in mM) 135 NaCl, 5.4 KCl, 1.8 CaCl2, 10 glucose and 5 HEPES (pH 7.2 adjusted by NaOH). In the extracellular buffer, 2 μM of glycine was added (glycine was the co-agonist of NMDA receptor)^2. All reagents including aptamer were dissolved in the corresponding extracellular buffer and used. […] The whole-cell current was recorded using an Axopatch-200B amplifier at a cutoff frequency of 2-20 kHz by a built-in, eight-pole Bessel filter and digitized at 5-50 kHz sampling frequency using a Digidata 1322A from Axon Instruments (Molecular Devices, Sunnyvale, Calif.). The pClamp 8 software (Molecular Devices) was used for data acquisition. All whole-cell recordings were at −60 mV and 22° C.
To deliver AG56 to a HEK-293 cell, a “Ψ”-shaped flow device was used. […] In all experiments reported in this study, a 6-second preincubation flow protocol was used for full aptamer preincubation. […] The corrected current amplitude was used for data analysis.
Determination of KI,app by the ratio of the current amplitude in the absence and presence of inhibitor or A/A(I)—see FIG. 5 in the text. Equ. 10a and 10b were derived based on one inhibitor binding to the receptor. KI, app is the apparent inhibition constant for the inhibitor; other terms have been defined previously.
Under this condition, the inhibition constant for the closed-channel conformation was determined from the ratio of the amplitude according to equ. 10a and 10b. Likewise, at a saturating ligand concentration (i.e., L>>K1), the majority of the receptors were in the open-channel state. Consequently, the inhibition constant associated with the open-channel conformation was measured. The basis of using the two ligand concentrations that corresponded to ˜4% and ˜96% fraction of the open-channel receptor form^7 to determine the corresponding inhibition constant was a putative difference in inhibition constant between the closed-channel and the open-channel conformation. At those low and high ligand concentrations^7, the apparent inhibition constants obtained were considered pertinent to the closed-channel and the open-channel conformations, respectively. Examples of using the current amplitude to determine the inhibition constant for an inhibitor include our previous study of two 2,3-benzodiazepine derivatives with the GluA2Qflip AMPA receptor^15.

T1 sequence (P19491 22-883 isoform P19491-2): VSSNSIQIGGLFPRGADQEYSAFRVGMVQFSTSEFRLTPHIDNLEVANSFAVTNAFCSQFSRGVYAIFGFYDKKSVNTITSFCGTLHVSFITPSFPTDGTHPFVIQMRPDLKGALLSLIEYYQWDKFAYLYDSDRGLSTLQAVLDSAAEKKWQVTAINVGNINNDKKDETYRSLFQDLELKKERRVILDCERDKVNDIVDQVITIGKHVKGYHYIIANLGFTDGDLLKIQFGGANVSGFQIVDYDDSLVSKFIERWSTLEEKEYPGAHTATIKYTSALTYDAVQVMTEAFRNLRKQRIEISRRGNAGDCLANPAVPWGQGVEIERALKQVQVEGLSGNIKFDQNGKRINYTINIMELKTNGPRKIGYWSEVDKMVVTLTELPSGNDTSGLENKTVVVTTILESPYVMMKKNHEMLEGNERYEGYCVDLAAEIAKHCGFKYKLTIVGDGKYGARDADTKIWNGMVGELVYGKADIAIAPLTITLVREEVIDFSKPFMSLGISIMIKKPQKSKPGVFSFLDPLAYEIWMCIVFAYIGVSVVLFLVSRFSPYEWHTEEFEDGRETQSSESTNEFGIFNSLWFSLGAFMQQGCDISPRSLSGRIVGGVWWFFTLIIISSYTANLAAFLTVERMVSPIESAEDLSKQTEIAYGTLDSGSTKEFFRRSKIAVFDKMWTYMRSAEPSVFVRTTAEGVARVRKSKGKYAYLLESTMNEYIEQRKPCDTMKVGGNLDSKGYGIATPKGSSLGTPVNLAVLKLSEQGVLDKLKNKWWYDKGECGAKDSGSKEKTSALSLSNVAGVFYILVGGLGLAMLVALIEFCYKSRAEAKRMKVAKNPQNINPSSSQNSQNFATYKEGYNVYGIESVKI

| Molecule | inhibitory function of shorter versions of AG1407, based on A/A(I) (GluA2Qflip) | A/A(I) value (0.5 μM AG1407, 0.5 mM glutamate) | A/A(I) value (0.5 μM AG1407, 3 mM glutamate) | A/A(I), ratio of current amplitudes in absence and presence of aptamer (500 nM aptamer, 3 mM glutamate) | inhibition of the open-channel conformation (GluA2Qflip, high glutamate concentration) |
| --- | --- | --- | --- | --- | --- |
| 45 nt RNA: truncated AG1407 version with the bulge at the U50 position removed (GGUUCAACUGCCAUCUAGGCAGAUUGUGAAGCGUAGGCUCGAGCC; listed as RNA, chemistry not given here) | total loss of inhibitory function |  |  |  |  |
| 48 nt RNA: truncated AG1407 version with base-paired stem in first stem-loop region truncated (GGAGAAUCAACUCAUCUAGAGAUUGUGAAGCGUAGGCUCGAUUUGUCC; listed as RNA, chemistry not given here) | total loss of inhibitory function |  |  |  |  |
| 46 nt RNA: truncated AG1407 version with three-way junction shortened by deleting UUGUGA sequence (GGAGAAUCAACUGCCAUCUAGGCAGAAGCGUAGGCUCGAUUUGUCC; listed as RNA, chemistry not given here) | total loss of inhibitory function |  |  |  |  |
| AG1407: full length 100-nt RNA aptamer, most enriched SELEX sequence against GluA2Qflip (nucleic acid, RNA, backbone not given here) GGGAGAAUUCAACUGCCAUCUAGGCAGAUUGUGAAGCGUAGGCUCGAGUUUGUCCCGCGAGCCAAAGAUUCCAGAAGUACUACAAGCUUCUGGACUCGGU |  | significantly larger than 1.0 | significantly larger than 1.0 | one of the most potent inhibitors | inhibited the open-channel |
